In series [1] the test system is HeLa Kyoto. Kind of series: solubility in G1/S (NP-40 vs SDS abundance) (log2 ratio); higher = more soluble. The conditions noted are these: cell cycle stage: G1/S.
In series [2] the test system is HeLa Kyoto. The series is described as follows: solubility change mitosis vs G1/S (difference of NP-40 vs SDS log2 ratios) (log2 ratio difference); higher = more soluble in mitosis.
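Throughout, for solubility change mitosis vs G1/S (difference of NP-40 vs SDS log2 ratios): synchronized HeLa Kyoto cells (double thymidine block for G1/S, nocodazole release for mitosis), protein amounts in NP-40 versus SDS lysates quantified by mass spectrometry, three biological replicates.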
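Throughout, for solubility in G1/S (NP-40 vs SDS abundance): HeLa Kyoto cells arrested at G1/S by double thymidine block, proteins quantified by TMT10plex mass spectrometry in mild NP-40 versus SDS extracts, three biological replicates.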

Consider “MKEMSANTVLDSQRQQKHYGITSPISLASPKEIDHIYTQKLIDAMKPFGVFEDEEELNHRLVVLGKLNNLVKEWISDVSESKNLPPSVVATVGGKIFTFGSYRLGVHTKGADIDALCVAPRHVERSDFFQSFFEKLKHQDGIRNLRAVEDAFVPVIKFEFDGIEIDLVFARLAIQTISDNLDLRDDSRLRSLDIRCIRSLNGCRVTDEILHLVPNKETFRLTLRAVKLWAKRRGIYSNMLGFLGGVSWAMLVARTCQLYPNAAASTLVHKFFLVFSKWEWPNPVLLKQPEESNLNLPVWDPRVNPSDRYHLMPIITPAYPQQNSTYNVSTSTRTVMVEEFKQGLAVTDEILQGKSDWSKLLEPPNFFQKYRHYIVLTASASTEENHLEWVGLVESKIRVLVGNLERNEFITLAHVNPQSFPGNKEHHKDNNYVSMWFLGIIFRRVENAESVNIDLTYDIQSFTDTVYRQANNINMLKEGMKIEATHVKKKQLHHYLPAEILQKKKKQSLSDVNRSSGGLQSKRLSLDSSCLDSSRDTDNGTPFNSPASKSDSPSVGETERNSAEPAAVIVEKPLSVPPAQGLSIPVIGAKVDSTVKTVSPPTVCTIPTVVGRNVIPRITTPHNPAQGQPHLNGMSNITKTVTPKRSHSPSIDGTPKRLKDVEKFIRLESTFKDPRTAEERKRKSVDAIGGESMPIPTIDTSRKKRLPSKELPDSSSPVPANNIRVIKNSIRLTLNR [PAPOLG]”, for which the “solubility in G1/S (log2)” value with HeLa Kyoto [1] is -0.0339. Moreover, in the series on HeLa Kyoto [2], the “solubility change mitosis (log2)” value is -0.0762.
Consider “MKFAYRFSNLLGTVYRRGNLNFTCDGNSVISPVGNRVTVFDLKNNKSDTLPLATRYNVKCVGLSPDGRLAIIVDEGGDALLVSLVCRSVLHHFHFKGSVHSVSFSPDGRKFVVTKGNIAQMYHAPGKKREFNAFVLDKTYFGPYDETTCIDWTDDSRCFVVGSKDMSTWVFGAERWDNLIYYALGGHKDAIVACFFESNSLDLYSLSQDGVLCMWQCDTPPEGLRLKPPAGWKADLLQREEEEEEEEDQEGDRETTIRGKATPAEEEKTGKVKYSRLAKYFFNKEGDFNNLTAAAFHKKSHLLVTGFASGIFHLHELPEFNLIHSLSISDQSIASVAINSSGDWIAFGCSGLGQLLVWEWQSESYVLKQQGHFNSMVALAYSPDGQYIVTGGDDGKVKVWNTLSGFCFVTFTEHSSGVTGVTFTATGYVVVTSSMDGTVRAFDLHRYRNFRTFTSPRPTQFSCVAVDASGEIVSAGAQDSFEIFVWSMQTGRLLDVLSGHEGPISGLCFNPMKSVLASASWDKTVRLWDMFDSWRTKETLALTSDALAVTFRPDGAELAVATLNSQITFWDPENAVQTGSIEGRHDLKTGRKELDKITAKHAAKGKAFTALCYSADGHSILAGGMSKFVCIYHVREQILMKRFEISCNLSLDAMEEFLNRRKMTEFGNLALIDQDAGQEDGVAIPLPGVRKGDMSSRHFKPEIRVTSLRFSPTGRCWAATTTEGLLIYSLDTRVLFDPFELDTSVTPGRVREALRQQDFTRAILMALRLNESKLVQEALEAVPRGEIEVVTSSLPELYVEKVLEFLASSFEVSRHLEFYLLWTHKLLMLHGQKLKSRAGTLLPVIQFLQKSIQRHLDDLSKLCSWNHYNMQYALAVSKQRGTKRSLDPLGSEEEAEASEDDSLHLLGGGGRDSEEEMLA [PWP2]”, for which the “solubility in G1/S (log2)” value in the series on HeLa Kyoto [1] was -1.72. Also, the “solubility change mitosis (log2)” value with HeLa Kyoto [2] amounted to 0.632.
For “MKGGNADSWQREKLASMESPEEPGASMDENYFVNYTFKDRSHSGRVAQGIMKLCLEEELFADVTISVEGREFQLHRLVLSAQSCFFRSMFTSNLKEAHNRVIVLQDVSESVFQLLVDYIYHGTVKLRAEELQEIYEVSDMYQLTSLFEECSRFLARTVQVGNCLQVMWLADRHSDPELYTAAKHCAKTHLAQLQNTEEFLHLPHRLLTDIISDGVPCSQNPTEAIEAWINFNKEEREAFAESLRTSLKEIGENVHIYLIGKESSRTHSLAVSLHCAEDDSISVSGQNSLCHQITAACKHGGDLYVVGGSIPRRMWKCNNATVDWEWCAPLPRDRLQHTLVSVPGKDAIYSLGGKTLQDTLSNAVIYYRVGDNVWTETTQLEVAVSGAAGANLNGIIYLLGGEENDLDFFTKPSRLIQCFDTETDKCHVKPYVLPFAGRMHAAVHKDLVFIVAEGDSLVCYNPLLDSFTRLCLPEAWSSAPSLWKIASCNGSIYVFRDRYKKGDANTYKLDPATSAVTVTRGIKVLLTNLQFVLA [KBTBD4]”, in the series on HeLa Kyoto [1], the “solubility in G1/S (log2)” value was -0.0904. The “solubility change mitosis (log2)” value in the series on HeLa Kyoto [2] was -0.161.
As for “MKLHCEVEVISRHLPALGLRNRGKGVRAVLSLCQQTSRSQPPVRAFLLISTLKDKRGTRYELRENIEQFFTKFVDEGKATVRLKEPPVDICLSKAISSSLKGFLSAMRLAHRGCNVDTPVSTLTPVKTSEFENFKTKMVITSKKDYPLSKNFPYSLEHLQTSYCGLVRVDMRMLCLKSLRKLDLSHNHIKKLPATIGDLIHLQELNLNDNHLESFSVALCHSTLQKSLRSLDLSKNKIKALPVQFCQLQELKNLKLDDNELIQFPCKIGQLINLRFLSAARNKLPFLPSEFRNLSLEYLDLFGNTFEQPKVLPVIKLQAPLTLLESSARTILHNRIPYGSHIIPFHLCQDLDTAKICVCGRFCLNSFIQGTTTMNLHSVAHTVVLVDNLGGTEAPIISYFCSLGCYVNSSDMLK [PPIL5]”, in the series on HeLa Kyoto [1], the “solubility in G1/S (log2)” value was -0.0487. In addition, the “solubility change mitosis (log2)” value with HeLa Kyoto [2] was -0.0159.
In the case of “MKRHRPVSSSDSSDESPSTSFTSGSMYRIKSKIPNEHKKPAEVFRKDLISAMKLPDSHHINPDSYYLFADTWKEEWEKGVQVPASPDTVPQPSLRIIAEKVKDVLFIRPRKYIHCSSPDTTEPGYINIMELAASVCRYDLDDMDIFWLQELNEDLAEMGCGPVDENLMEKTVEVLERHCHENMNHAIETEEGLGIEYDEDVICDVCRSPDSEEGNDMVFCDKCNVCVHQACYGILKVPEGSWLCRSCVLGIYPQCVLCPKKGGALKTTKTGTKWAHVSCALWIPEVSIACPERMEPITKISHIPPSRWALVCNLCKLKTGACIQCSIKSCITAFHVTCAFEHGLEMKTILDEGDEVKFKSYCLKHSQNRQKLGEAEYPHHRAKEQSQAKSEKTSLRAQKLRELEEEFYSLVRVEDVAAELGMPTLAVDFIYNYWKLKRKSNFNKPLFPPKEDEENGLVQPKEESIHTRMRMFMHLRQDLERVRNLCYMISRREKLKLSHNKIQEQIFGLQVQLLNQEIDAGLPLTNALENSLFYPPPRITLKLKMPKSTPEDHRNSSTETDQQPHSPDSSSSVHSIRNMQVPQESLEMRTKSYPRYPLESKNNRLLASLSHSRSEAKESSPAWRTPSSECYHGQSLGKPLVLQAALHGQSSIGNGKSQPNSKFAKSNGLEGSWSGNVTQKDSSSEMFCDQEPVFSPHLVSQGSFRKSTVEHFSRSFKETTNRWVKNTEDLQCYVKPTKNMSPKEQFWGRQVLRRSAGRAPYQENDGYCPDLELSDSEAESDGNKEKVRVRKDSSDRENPPHDSRRDCHGKSKTHPLSHSSMQR [JADE3]”, in the series on HeLa Kyoto [1], the “solubility in G1/S (log2)” value was -0.949. Further, the “solubility change mitosis (log2)” value in the series with HeLa Kyoto [2] came to 0.383.
Turning to “MKSSGLFPFLVLLALGTLAPWAVEGSGKSFKAGVCPPKKSAQCLRYKKPECQSDWQCPGKKRCCPDTCGIKCLDPVDTPNPTRRKPGKCPVTYGQCLMLNPPNFCEMDGQCKRDLKCCMGMCGKSCVSPVKA [SLPI]”, the “solubility in G1/S (log2)” value in the series on HeLa Kyoto [1] was -0.403. The “solubility change mitosis (log2)” value in the series with HeLa Kyoto [2] stood at 0.714.
Turning to “MKTSPRRPLILKRRRLPLPVQNAPSETSEEEPKRSPAQQESNQAEASKEVAESNSCKFPAGIKIINHPTMPNTQVVAIPNNANIHSIITALTAKGKESGSSGPNKFILISCGGAPTQPPGLRPQTQTSYDAKRTEVTLETLGPKPAARDVNLPRPPGALCEQKRETCADGEAAGCTINNSLSNIQWLRKMSSDGLGSRSIKQEMEEKENCHLEQRQVKVEEPSRPSASWQNSVSERPPYSYMAMIQFAINSTERKRMTLKDIYTWIEDHFPYFKHIAKPGWKNSIRHNLSLHDMFVRETSANGKVSFWTIHPSANRYLTLDQVFKPLDPGSPQLPEHLESQQKRPNPELRRNMTIKTELPLGARRKMKPLLPRVSSYLVPIQFPVNQSLVLQPSVKVPLPLAASLMSSELARHSKRVRIAPKVLLAEEGIAPLSSAGPGKEEKLLFGEGFSPLLPVQTIKEEEIQPGEEMPHLARPIKVESPPLEEWPSPAPSFKEESSHSWEDSSQSPTPRPKKSYSGLRSPTRCVSEMLVIQHRERRERSRSRRKQHLLPPCVDEPELLFSEGPSTSRWAAELPFPADSSDPASQLSYSQEVGGPFKTPIKETLPISSTPSKSVLPRTPESWRLTPPAKVGGLDFSPVQTSQGASDPLPDPLGLMDLSTTPLQSAPPLESPQRLLSSEPLDLISVPFGNSSPSDIDVPKPGSPEPQVSGLAANRSLTEGLVLDTMNDSLSKILLDISFPGLDEDPLGPDNINWSQFIPELQ [FOXM1]”, the “solubility in G1/S (log2)” value in the series with HeLa Kyoto [1] was found to be 0.114. Also, the “solubility change mitosis (log2)” value in the series on HeLa Kyoto [2] was -0.0969.
With “MKTVLMVAEKPSLAQSIAKILSRGSLSSHKGLNGACSVHEYTGTFAGQPVRFKMTSVCGHVMTLDFLGKYNKWDKVDPAELFSQAPTEKKEANPKLNMVKFLQVEGRGCDYIVLWLDCDKEGENICFEVLDAVLPVMNKAHGGEKTVFRARFSSITDTDICNAMACLGEPDHNEALSVDARQELDLRIGCAFTRFQTKYFQGKYGDLDSSLISFGPCQTPTLGFCVERHDKIQSFKPETYWVLQAKVNTDKDRSLLLDWDRVRVFDREIAQMFLNMTKLEKEAQVEATSRKEKAKQRPLALNTVEMLRVASSSLGMGPQHAMQTAERLYTQGYISYPRTETTHYPENFDLKGSLRQQANHPYWADTVKRLLAEGINRPRKGHDAGDHPPITPMKSATEAELGGDAWRLYEYITRHFIATVSHDCKYLQSTISFRIGPELFTCSGKTVLSPGFTEVMPWQSVPLEESLPTCQRGDAFPVGEVKMLEKQTNPPDYLTEAELITLMEKHGIGTDASIPVHINNICQRNYVTVESGRRLKPTNLGIVLVHGYYKIDAELVLPTIRSAVEKQLNLIAQGKADYRQVLGHTLDVFKRKFHYFVDSIAGMDELMEVSFSPLAATGKPLSRCGKCHRFMKYIQAKPSRLHCSHCDETYTLPQNGTIKLYKELRCPLDDFELVLWSSGSRGKSYPLCPYCYNHPPFRDMKKGMGCNECTHPSCQHSLSMLGIGQCVECESGVLVLDPTSGPKWKVACNKCNVVAHCFENAHRVRVSADTCSVCEAALLDVDFNKAKSPLPGDETQHMGCVFCDPVFQELVELKHAASCHPMHRGGPGRRQGRGRGRARRPPGKPNPRRPKDKMSALAAYFV [TOP3B]”, the “solubility in G1/S (log2)” value in the series on HeLa Kyoto [1] was -0.535. The “solubility change mitosis (log2)” value in the series on HeLa Kyoto [2] was determined as 0.0647.
For “MLEPQENGVIDLPDYEHVEDETFPPFPPPASPERQDGEGTEPDEESGNGAPVRVPPKRTVKRNIPKLDAQRLISERGLPALRHVFDKAKFKGKGHEAEDLKMLIRHMEHWAHRLFPKLQFEDFIDRVEYLGSKKEVQTCLKRIRLDLPILHEDFVSNNDEVAENNEHDVTSTELDPFLTNLSESEMFASELSRSLTEEQQQRIERNKQLALERRQAKLLSNSQTLGNDMLMNTPRAHTVEEVNTDEDQKEESNGLNEDILDNPCNDAIANTLNEEETLLDQSFKNVQQQLDATSRNITEAR [TIPIN]”, the “solubility in G1/S (log2)” value in the series with HeLa Kyoto [1] was determined as 0.321. Also, the “solubility change mitosis (log2)” value with HeLa Kyoto [2] is 0.273.

The values are drawn from the supplement of paper PMC5998384.
